Data: US20160272721A1 (NEOMICS, published 2016)

T1: AIMP2-DX2 with thirty three (33) N-terminal amino acids deleted, fused with strep tag (human, UniProt Q13155 34-320)
T1 construct: Expressed in HEK293T cells, tested in cell lysate; also called Δ33-DX2; Δ33; not shown: strep tag of thirty amino acids including a linker peptide
T1 sequence: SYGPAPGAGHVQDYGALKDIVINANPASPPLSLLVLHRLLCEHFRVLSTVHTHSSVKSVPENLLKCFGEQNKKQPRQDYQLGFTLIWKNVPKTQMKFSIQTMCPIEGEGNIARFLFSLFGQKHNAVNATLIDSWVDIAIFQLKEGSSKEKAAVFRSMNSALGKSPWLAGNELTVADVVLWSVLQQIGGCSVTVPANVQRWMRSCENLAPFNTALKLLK

T2: AIMP2-DX2 with two (2) N-terminal amino acids deleted, fused with strep tag (human, UniProt Q13155 3-320)
T2 construct: Expressed in HEK293T cells, tested in cell lysate; also called Δ2-DX2; Δ2; not shown: strep tag of thirty amino acids including a linker peptide
T2 sequence: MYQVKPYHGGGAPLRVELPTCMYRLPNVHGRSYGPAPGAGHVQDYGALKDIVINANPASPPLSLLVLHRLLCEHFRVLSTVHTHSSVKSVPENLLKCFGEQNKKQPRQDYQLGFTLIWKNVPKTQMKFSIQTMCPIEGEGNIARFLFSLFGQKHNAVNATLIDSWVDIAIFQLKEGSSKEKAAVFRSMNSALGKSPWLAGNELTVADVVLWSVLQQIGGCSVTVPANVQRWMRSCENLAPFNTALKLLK

T3: AIMP2-DX2 with twenty three (23) N-terminal amino acids deleted, fused with strep tag (human, UniProt Q13155 24-320)
T3 construct: Expressed in HEK293T cells, tested in cell lysate; also called Δ23-DX2; Δ23; not shown: strep tag of thirty amino acids including a linker peptide
T3 sequence: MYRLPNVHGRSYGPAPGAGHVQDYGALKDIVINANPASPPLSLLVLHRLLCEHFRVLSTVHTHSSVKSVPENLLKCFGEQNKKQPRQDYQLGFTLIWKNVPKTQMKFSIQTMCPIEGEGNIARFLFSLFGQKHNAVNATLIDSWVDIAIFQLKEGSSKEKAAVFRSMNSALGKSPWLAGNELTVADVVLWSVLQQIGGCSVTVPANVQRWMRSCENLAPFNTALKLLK

T4: AIMP2 protein (wild type, full-length) (human, UniProt Q13155 1-312, limits assumed)
T4 construct: 217 is written here; B42 fusion (pJG4-5) in yeast two hybrid; 35S-labelled in vitro translation product in the pull-down; endogenous in A549, DU145 and H460 cells; also called AIMP2-F; p38
T4 sequence: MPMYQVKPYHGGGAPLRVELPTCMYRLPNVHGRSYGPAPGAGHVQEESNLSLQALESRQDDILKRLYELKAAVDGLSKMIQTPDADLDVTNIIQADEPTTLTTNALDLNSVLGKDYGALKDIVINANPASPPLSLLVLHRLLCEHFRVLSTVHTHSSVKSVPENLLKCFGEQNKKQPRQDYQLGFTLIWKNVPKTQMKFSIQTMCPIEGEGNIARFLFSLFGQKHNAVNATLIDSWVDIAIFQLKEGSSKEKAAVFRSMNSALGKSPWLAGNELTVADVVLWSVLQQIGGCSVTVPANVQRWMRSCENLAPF

T5: FUSE-binding protein (UniProt Q96AE4 1-644, limits assumed)
T5 construct: Yeast two hybrid fusion; construct not described; also called FBP
T5 sequence (looked up): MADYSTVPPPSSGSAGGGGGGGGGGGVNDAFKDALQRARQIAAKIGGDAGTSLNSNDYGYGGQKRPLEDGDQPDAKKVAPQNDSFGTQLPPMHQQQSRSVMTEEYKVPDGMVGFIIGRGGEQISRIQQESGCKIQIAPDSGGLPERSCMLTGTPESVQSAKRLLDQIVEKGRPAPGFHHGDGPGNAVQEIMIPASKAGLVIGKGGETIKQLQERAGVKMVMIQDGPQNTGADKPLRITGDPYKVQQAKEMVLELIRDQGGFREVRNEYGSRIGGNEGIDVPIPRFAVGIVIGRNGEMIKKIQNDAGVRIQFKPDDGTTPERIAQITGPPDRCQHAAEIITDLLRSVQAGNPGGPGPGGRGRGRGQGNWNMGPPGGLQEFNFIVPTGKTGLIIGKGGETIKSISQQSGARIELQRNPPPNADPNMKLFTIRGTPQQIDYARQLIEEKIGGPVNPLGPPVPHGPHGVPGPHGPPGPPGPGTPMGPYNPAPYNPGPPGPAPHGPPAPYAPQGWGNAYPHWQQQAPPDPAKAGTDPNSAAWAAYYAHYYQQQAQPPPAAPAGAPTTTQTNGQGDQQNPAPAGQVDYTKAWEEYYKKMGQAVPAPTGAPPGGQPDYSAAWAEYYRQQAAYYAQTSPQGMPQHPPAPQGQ

B1: AIMP2-DX2 epitope peptide (amino acid residues 42 to 52, GHVQDYGALKD, of the AIMP2-DX2 protein) (peptide)
peptide: GHVQDYGALKD
B2: H5 Fab (Fab, V domains shown)
VH: QEQLVESGGGLVTPGGTLTLTCTASGFTISSYHMTWVRQAPGKGLEWIGVISNSGGTSYANWAKGRFTISKTSTTVDLKITSPTTEDTATYFCVRGVPGINSNLWGQGTLVTISS
VL: AQVLTQTPSSVSAAVGGTVTINCQSSQSVYSGNWLAWYQQKPGQPPKLLIYSTSTLASGVPSRFKGSGSGTQFTLTVSDLECDDAATYYCAGDYDGYKNAFGGGTKVVVKR
notes: Detected with anti-HA tag or anti-human Fab antibody, so vector tags may be present; they are not described; also called antibody fragment H5 Fab; antibody (Fab) of colon H5
B3: H5 IgG antibody (antibody, V domains shown)
VH: B2 VH
VL: B2 VL
notes: also called H5 antibody (IgG); H5 antibody
B4: AIMP2-DX2 protein (other)
chain: MPMYQVKPYHGGGAPLRVELPTCMYRLPNVHGRSYGPAPGAGHVQDYGALKDIVINANPASPPLSLLVLHRLLCEHFRVLSTVHTHSSVKSVPENLLKCFGEQNKKQPRQDYQLGFTLIWKNVPKTQMKFSIQTMCPIEGEGNIARFLFSLFGQKHNAVNATLIDSWVDIAIFQLKEGSSKEKAAVFRSMNSALGKSPWLAGNELTVADVVLWSVLQQIGGCSVTVPANVQRWMRSCENLAPFNTALKLLK
notes: Endogenous protein in H460 or SW460 cell lysates in the Western blots; LexA/B42 fusion in yeast two hybrid; 35S-labelled in vitro translation product (pET-28a) in the pull-down; also called p38DX2; AIMP2 lacking exon 2

Experiments:
H5 Fab = molecular target: B2; assay: antigen pre-adsorption, 100 µg/ml peptide with H5 Fab, Western blot of H460 lysate (FIG. 18)
Description: Firstly, antigen pre-adsorption analysis was conducted in order to confirm whether the prepared H5 Fab specifically binds to the AIMP2-DX2. After electrophoresis of cell lysates of H460 lung cancer cells which expressed the AIMP2-DX2, Western blot analysis was performed using a H5 Fab in the presence of 100 μg/ml of the AIMP2-DX2 epitope polypeptide ([…]) (indicated as “+” in FIG. 18) and a H5 Fab without the addition of the AIMP2-DX2 epitope peptide (indicated as “−” in FIG. 18), respectively.

[1] = molecular target: T1, AIMP2-DX2 with thirty three (33) …; assay: Western blot of HEK293T lysates (FIG. 20a)
Source text: (§1) FIG. 20a and FIG. 20b show a test result of determining the effect of N-terminal amino acid deletion of the AIMP2-DX2 protein on the binding between the H5 Fab and the AIMP2-DX2 protein. […] Being fused with strep tag, the AIMP2-DX2 proteins expressed in HEK293T cells were the full-length AIMP2-DX2 protein (“F-DX2” or “F”) and its N-terminal deleted isotypes (“42-DX2” or “42” for two (2) amino acid deletion; “423-DX2” or “423” for twenty three (23) amino acid deletion; “433-DX2” or “433” for thirty three (33) amino acid deletion), respectively. […] “EV” means an empty vector.
(§2) Further, the effect of N-terminal amino acid deletion of the AIMP2-DX2 protein on the binding between H5 Fab and AIMP2-DX2 protein was analyzed (See FIG. 20). It was reported that N-terminal amino acid residues of the AIMP2-DX2 exert a significant effect on the solubility of the AIMP2-DX2. AIMP2-DX2 derivatives in which the N-terminal two (2), twenty three (23) or thirty three (33) amino acid residues were deleted, respectively, were prepared (See FIG. 20b). The full-length AIMP2-DX2 and its isotypes were fused with strep tag and then expressed in the HEK293T cells, followed by Western blot analysis using H5 Fab.

[2] = molecular target: T2, AIMP2-DX2 with two (2) N-terminal amino …; assay: Western blot of HEK293T lysates (FIG. 20a)
Source text: as §1, §2

[3] = molecular target: T3, AIMP2-DX2 with twenty three (23) …; assay: Western blot of HEK293T lysates (FIG. 20a)
Source text: as §1, §2

[4] = molecular target: T4, AIMP2 protein (wild type, full-length); assay: Western blot of H460 cell lysates (FIG. 22)
Description: Lastly, it was tested whether H5 antibody is capable of differentiating AIMP2-DX2 from wild type AIMP2 protein (See FIG. 22). Western blot analysis was performed on H460 cell lysates using the H5 antibody.

[5] = molecular target: B1; assay: surface plasmon resonance, H5 IgG on CM5 chip, peptide in flow (FIG. 21a)
Source text: H5 antibody and IgG proteins were coated on the CM5 chips, while the exemplary AIMP2-DX2 epitope peptide (i.e. amino acid residues 42 to 52 ([…]) as shown in SEQ ID NO: 2 or SEQ ID NO: 17) at various concentrations was flowed over the chip. As shown in FIG. 21a and FIG. 21b, the binding affinity between H5 IgG antibody and the AIMP2-DX2 epitope peptide was indicated in sensorgram. X axis of sensorgram indicates time (second, s), while y axis means response (response unit, RU). The description in a box indicates a concentration of the AIMP2-DX2 epitope peptide in nM.
Still further, the binding affinity between H5 IgG antibody and the exemplary AIMP2-DX2 epitope peptide was determined by using surface plasmon resonance analysis (See FIG. 21). The H5 antibody (IgG) and IgG proteins were coated on the CM5 chips, while the exemplary AIMP2-DX2 epitope peptide at various concentrations was flowed over the chip to monitor the real time association and dissociation between H5 antibody and the exemplary AIMP2-DX2 epitope peptide. Analysis reagents and buffer were injected at the flow velocity of 15 μl/min. for 6 min, followed by washing for 20 min. Analysis was performed in sensorgram in which a response result of a blank without protein coating is subtracted from a response results between H5 antibody or IgG and the AIMP2-DX2 epitope peptides.

Smad2 (human) = molecular target: T6, Smad2 (human) (human, UniProt Q15796 1-467, limits assumed); assay: yeast two hybrid (FIG. 4e)
T6 construct: LexA fusion (pEG202) in yeast two hybrid; also called R-Smad2; Lex-Smad2

FUSE-binding protein = molecular target: T5, FUSE-binding protein; assay: yeast two hybrid (FIG. 4e)

T6 sequence (Q15796 whole entry, the tested form may be a part): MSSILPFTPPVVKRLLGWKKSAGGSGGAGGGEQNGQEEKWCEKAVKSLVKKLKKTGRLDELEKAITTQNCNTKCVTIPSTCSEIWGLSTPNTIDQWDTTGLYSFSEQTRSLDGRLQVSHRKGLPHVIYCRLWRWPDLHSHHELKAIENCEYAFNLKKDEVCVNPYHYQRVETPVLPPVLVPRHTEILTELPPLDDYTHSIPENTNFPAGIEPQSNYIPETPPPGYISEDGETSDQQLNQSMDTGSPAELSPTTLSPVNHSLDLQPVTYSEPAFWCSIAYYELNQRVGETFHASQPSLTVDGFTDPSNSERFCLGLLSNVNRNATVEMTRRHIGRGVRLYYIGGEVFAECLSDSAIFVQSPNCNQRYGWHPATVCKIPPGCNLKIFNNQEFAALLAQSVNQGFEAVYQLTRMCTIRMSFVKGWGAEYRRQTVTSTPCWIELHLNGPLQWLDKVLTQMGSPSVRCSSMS

B1
binding result (H5 Fab): binds

B2
binding result [1]: binds | binding result [2]: binds | binding result [3]: binds | binding result [4]: no binding

B3
binding result [5]: binds

B4
binding result (Smad2 (human)): no binding | binding result (FUSE-binding protein): no binding
